Experimental data reported in publication PMC3141052.

Target: P domain protein of norovirus VA207 (GII.9), amino acid 222-537 (norovirus VA207 (GII.9))
Assay: crystal structure; native P protein (P2(1)2(1)2) and its complexes with Le^y or SLe^x tetrasaccharide (P2(1)2(1)2(1)); hanging drop, PEG 3350, 50 mM magnesium formate

Substance: P domain protein of norovirus VA207 (GII.9), amino acid 222-537 (domain or fragment)
- stoichiometry N: 2
